Data taken from the DeepSol protein solubility set.

Assay: soluble on expression in E. coli; label from the status in PepcDB or PDB records

Sequence	soluble on expression in E. coli
MGSDKIHHHHHHMKQAEEVIHPEALSGTGIMTISREPVVFHCNHYNRFLQLVIEDCHYIDREPILVGSATEVSFRQLRTAFREHPEWSVANRLKYAESMYRFCGFGDLPLGALPHSAEPEFVLVENHSHYGTALRLNYGKRRWPGEHFDLGYAIGALSAIYGQPYGGKIDATALSTGAETTRFHLHLRNSGDRFPLDIPDIPQAVLPQGADQVPPRHIGLHIDEDAIMTAVGTLPLTGDPDGLIPAFGVYLTRHYADYYNLVSFRFERALQEALNTHRYLGEMLWYEYPTLFYYKEKFEHLQGQALARTLLMEAGHICGFNTMGGIMRSDPWYQLIVPQLQCREDWLSGIIACINALGWGVWRIQEIIPNERLILRAWYPYESLGHLRAFGPADHPIDYLMTGIGSSLMNLLYTADITTRPDLTLEFYYQVNRSKAGFWARQTRCMAMGDPYSEVVVERNIL	not soluble
LLSDYYHKRFGVDTRSVRFPGLISNVTLPGGGTTDYAVDIYYAAVKEGRFTCPIKEGTYMDMMYMPDALRACVELMEADPARLVHRNSFNITAMSFEPSQIAAAVKKLVPDFVMNYEVDPLRQGIAESWPNSLDDSCARSEWDWKPDYDLDSMSADMIQILKARYGK	not soluble
MTGEKLLYIETFGCQMNVSDSEKVASLLRGEGYSQTPDSSEADLIIVNTCSVRAKAEHKVYSYLGRFRKLKRDRRLLLGVGGCVAQQEGERLLKRVPWLDLVFGTHNLHLLPEMVRAAEQGERRAAVDFIDNEARLDLFPQADEGGGVTRFVTVMQGCDNFCSYCIVPYVRGREISRRSVEIIGEIRSAVAGGVREVTLLGQNVNSYGLKTPGELSFAGLLREISAIDGLERIRFTTSHPKDISPELIACFAELPKLCGHIHLPAQAGSDSILARMNRGYTRQEYLEKVAALRAARPEILITGDIIVGFPGETEADFLQTLSLMEEVRYTDIFSFAYSPRPETAAASLGDRIMRKETTERLERVQGLQRDMTIERHAGFVGTCQAVLVEGMSKRGDQLYGRTDGNLIVNFAGNPSLAGSLVDVRITRGYPNSLLGELAVFQ	soluble
MGSDKIHHHHHHMDDGTRLGQADHAAGPRPPGVIFTMRYPSDVGFVWKTIALHRDLIARAFGGEARCILAYPQLSPTSAYQPRWSTAIQADFYDYSAENRQRLERVITDEAIRLVVFMSAQPADVDLGFLRGLGLRTVTSENNSYDHSLRQPFMKRLAKALIRRVLKRQVFDLHIANSQAQYDFLRGFAQLPASRLRAVRNGVDTDHFQPGERTGACSTLGLDPDRLWIMAASQARPEKRLERVLEVIRAVKDARPALPIGFFFVGEGENLAEWRQIALGLPDAETYRFFGRQNDLRPYYQAASVFIHGAFRESFGLVIAEAMASGLPVVATHAHGPAEIIAEGETGRLVGRDDWEGLGKAVIEYLDDAELRRTHGLAGRARCVALFSITRQAQEFADLLRPFLKDGAGAPY	not soluble
MLELNFSQTLGTHCLTLNETLPASGITAIFGVSGAGKTSLINAISGLTRPQKGRIALNGRVLHDAENGICLTPEKRRIGYVFQDARLFPHYKVRGNLRYGMAKSMTGQFDKLVSLLGIEALLDRLPGSLSGGEKQRVAIGRALLTAPELLLLDEPLASLDIPRKRELLPYLQRLAREINIPMLYVSHSLDEILHLADKVMVLEDGQVKAFGPLEEVWGSSVMHPWLPKEQQSSILKVSVLEHHPHYAMTALALGDQHLWVNKLNQPLQSTLRIRIQASDVSLVLQPPQQTSIRNVLRAKVANCYDDNGQVEVQLEIGGRTLWARISPWARDELNIKPGLWLYAQVKSVSITA	not soluble
MSEIVIRHAETRDYEAIRQIHAQPEVYCNTLQVPHPSDHMWQERLADRPGIKQLVACIDGDVVGHLTIDVQQRPRRSHVADFGICVDSRWKNRGVASALMREMIEMCDNWLRVDRIELTVFVDNAPAIKVYKKFGFEIEGTGKKYALRNGEYVDAYYMARVK	not soluble
MAGDPMRTYENKEELKAEIEKTFEKYILEFDNIPENLKDKRADEVDRTPAENLAYQVGWTNLVLKWEEDERKGLQVKTPSDKFKWNQLGELYQWFTDTYAHLSLQELKAKLNENINSISAMIDSLSEEELFEPHMRKWADEATKTATWEVYKFIHVNTVAPFGTFRTKIRKWKKIVLLEHHHHHH	soluble
